Experiments:
Assay in all cases: BLI (Octet)
[1] = target: Cyno CD47 (Cyno monkey)
[2] = target: Human CD47 (human) (UniProt Q08722)
[3] = target: Rat CD47 (rat) (UniProt P97829)
Chain of Rat CD47 (rat) (P97829 19-140): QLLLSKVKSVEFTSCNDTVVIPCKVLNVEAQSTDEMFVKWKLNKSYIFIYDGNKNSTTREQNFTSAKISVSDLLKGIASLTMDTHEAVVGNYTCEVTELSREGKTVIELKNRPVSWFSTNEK

Chain of Human CD47 (human) (Q08722 19-139): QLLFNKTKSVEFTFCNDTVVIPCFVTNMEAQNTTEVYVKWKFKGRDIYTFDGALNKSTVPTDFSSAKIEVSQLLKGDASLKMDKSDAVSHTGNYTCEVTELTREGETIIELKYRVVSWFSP

Kd [1]: 289 pM | Kd [2]: 216 pM | Kd [3]: 1160 pM
Substance: Anti-human CD47 (clone MIAP410)
